Assay results: patent US20220002429A1, “TUMOR CELL AGGREGATION INHIBITORS' FOR TREATING CANCER” (Northwestern University, priority 2018, published 2022)

Tested on: TN1 PDX tumor cells
Experiment: ex vivo aggregation (clustering) assay of dissociated PDX tumor cells, IncuCyte time-lapse imaging
Type: cell-based, human
Details: media supplemented with EGF (10 ng/ml)
Procedure: Cell clustering assay. Freshly dissociated primary tumor cells in single cell suspension were seeded in collagen type I-coated 96-well plates. The plates were put into the IncuCyte live cell imaging system (Essen BioScience), and live images were taken every 2-4 h for up to one week. The cluster number and size were analyzed by Incucyte ZOOM software (Essen BioScience). In specific experiments, primary tumor cells might be sorted based on the expression of CD44 prior to seeding. In other experiments, seeded tumor cells might be transfected with siRNAs (100 nM) or treated with various inhibitors during the clustering assays. For cell viability analysis during clustering, the IncuCyte Cytotox Red reagent (Essen BioScience) was added to the medium according to the manufacturer's instructions.

B1: EGF: epidermal growth factor supplemented to culture media at 10 ng/ml (protein, UniProt P01133 23-1207, looked up)
Pro-epidermal growth factor: PQHWSCPEGTLAGNGNSTCVGPAPFLIFSHGNSIFRIDTEGTNYEQLVVDAGVSVIMDFHYNEKRIYWVDLERQLLQRVFLNGSRQERVCNIEKNVSGMAINWINEEVIWSNQQEGIITVTDMKGNNSHILLSALKYPANVAVDPVERFIFWSSEVAGSLYRADLDGVGVKALLETSEKITAVSLDVLDKRLFWIQYNREGSNSLICSCDYDGGSVHISKHPTQHNLFAMSLFGDRIFYSTWKMKTIWIANKHTGKDMVRINLHSSFVPLGELKVVHPLAQPKAEDDTWEPEQKLCKLRKGNCSSTVCGQDLQSHLCMCAEGYALSRDRKYCEDVNECAFWNHGCTLGCKNTPGSYYCTCPVGFVLLPDGKRCHQLVSCPRNVSECSHDCVLTSEGPLCFCPEGSVLERDGKTCSGCSSPDNGGCSQLCVPLSPVSWECDCFPGYDLQLDEKSCAASGPQPFLLFANSQDIRHMHFDGTDYGTLLSQQMGMVYALDHDPVENKIYFAHTALKWIERANMDGSQRERLIEEGVDVPEGLAVDWIGRRFYWTDRGKSLIGRSDLNGKRSKIITKENISQPRGIAVHPMAKRLFWTDTGINPRIESSSLQGLGRLVIASSDLIWPSGITIDFLTDKLYWCDAKQSVIEMANLDGSKRRRLTQNDVGHPFAVAVFEDYVWFSDWAMPSVMRVNKRTGKDRVRLQGSMLKPSSLVVVHPLAKPGADPCLYQNGGCEHICKKRLGTAWCSCREGFMKASDGKTCLALDGHQLLAGGEVDLKNQVTPLDILSKTRVSEDNITESQHMLVAEIMVSDQDDCAPVGCSMYARCISEGEDATCQCLKGFAGDGKLCSDIDECEMGVPVCPPASSKCINTEGGYVCRCSEGYQGDGIHCLDIDECQLGEHSCGENASCTNTEGGYTCMCAGRLSEPGLICPDSTPPPHLREDDHHYSVRNSDSECPLSHDGYCLHDGVCMYIEALDKYACNCVVGYIGERCQYRDLKWWELRHAGHGQQQKVIVVAVCVVVLVMLLLLSLWGAHYYRTQKLLSKNPKNPYEESSRDVRSRRPADTEDGMSSCPQPWFVVIKEHQDLKNGGQPVAGEDGQAADGSMQPTSWRQEPQLCGMGTEQGCWIPVSSDKGSCPQVMERSFHMPSYGTQTLEGGVEKPHSLLSANPLWQQRALDPPHQMELTQ
modifications: Pro-epidermal growth factor
notes: epidermal growth factor supplemented to culture media at 10 ng/ml
For B1, the “cluster formation of TN primary tumor cells” value was “increased cluster formation”.
